In publication PMC3865217:

Columns and labels:
Assay in all cases: SPR
Details in all cases: EMSA: 5 mM Hepes pH 7.5, 0.05 mM EDTA, 0.014% Nonidet P40, 5% glycerol, 30 min, 23 C; SPR: 5 mM Hepes pH 7.5, 5 mM phosphate pH 7.5, 0.05 mM EDTA …
[1] = test system: Yap8bZIPLNNR (Saccharomyces cerevisiae)
[2] = test system: Yap8bZIPL26A (Saccharomyces cerevisiae)
[3] = test system: Yap8bZIP (Saccharomyces cerevisiae)

## Y8RE 25-bp SPR oligomer
[1]
  Kd: 6.5 nM
[2]
  Kd: 17.2 nM
[3]
  Kd: 6.1 nM
